From article doi:10.1101/2021.04.12.439291 (bioRxiv, 2021)

B1: Ubc2 (yeast) (enzyme, Saccharomyces cerevisiae, UniProt P06104 1-172, looked up)
chain: MSTPARRRLMRDFKRMKEDAPPGVSASPLPDNVMVWNAMIIGPADTPYEDGTFRLLLEFDEEYPNKPPHVKFLSEMFHPNVYANGEICLDILQNRWTPTYDVASILTSIQSLFNDPNPASPANVEAATLFKDHKSQYVKRVKETVEKSWEDDMDDMDDDDDDDDDDDDDEAD

Columns and labels:
[1] = molecular target: Ubr1 (yeast, FLAG-tagged) (Saccharomyces cerevisiae, UniProt P19812 1-1950); assay: cryo-EM structure
[2] = molecular target: B1; assay: ITC

Sequence of Ubr1 (yeast, FLAG-tagged) (P19812 whole entry): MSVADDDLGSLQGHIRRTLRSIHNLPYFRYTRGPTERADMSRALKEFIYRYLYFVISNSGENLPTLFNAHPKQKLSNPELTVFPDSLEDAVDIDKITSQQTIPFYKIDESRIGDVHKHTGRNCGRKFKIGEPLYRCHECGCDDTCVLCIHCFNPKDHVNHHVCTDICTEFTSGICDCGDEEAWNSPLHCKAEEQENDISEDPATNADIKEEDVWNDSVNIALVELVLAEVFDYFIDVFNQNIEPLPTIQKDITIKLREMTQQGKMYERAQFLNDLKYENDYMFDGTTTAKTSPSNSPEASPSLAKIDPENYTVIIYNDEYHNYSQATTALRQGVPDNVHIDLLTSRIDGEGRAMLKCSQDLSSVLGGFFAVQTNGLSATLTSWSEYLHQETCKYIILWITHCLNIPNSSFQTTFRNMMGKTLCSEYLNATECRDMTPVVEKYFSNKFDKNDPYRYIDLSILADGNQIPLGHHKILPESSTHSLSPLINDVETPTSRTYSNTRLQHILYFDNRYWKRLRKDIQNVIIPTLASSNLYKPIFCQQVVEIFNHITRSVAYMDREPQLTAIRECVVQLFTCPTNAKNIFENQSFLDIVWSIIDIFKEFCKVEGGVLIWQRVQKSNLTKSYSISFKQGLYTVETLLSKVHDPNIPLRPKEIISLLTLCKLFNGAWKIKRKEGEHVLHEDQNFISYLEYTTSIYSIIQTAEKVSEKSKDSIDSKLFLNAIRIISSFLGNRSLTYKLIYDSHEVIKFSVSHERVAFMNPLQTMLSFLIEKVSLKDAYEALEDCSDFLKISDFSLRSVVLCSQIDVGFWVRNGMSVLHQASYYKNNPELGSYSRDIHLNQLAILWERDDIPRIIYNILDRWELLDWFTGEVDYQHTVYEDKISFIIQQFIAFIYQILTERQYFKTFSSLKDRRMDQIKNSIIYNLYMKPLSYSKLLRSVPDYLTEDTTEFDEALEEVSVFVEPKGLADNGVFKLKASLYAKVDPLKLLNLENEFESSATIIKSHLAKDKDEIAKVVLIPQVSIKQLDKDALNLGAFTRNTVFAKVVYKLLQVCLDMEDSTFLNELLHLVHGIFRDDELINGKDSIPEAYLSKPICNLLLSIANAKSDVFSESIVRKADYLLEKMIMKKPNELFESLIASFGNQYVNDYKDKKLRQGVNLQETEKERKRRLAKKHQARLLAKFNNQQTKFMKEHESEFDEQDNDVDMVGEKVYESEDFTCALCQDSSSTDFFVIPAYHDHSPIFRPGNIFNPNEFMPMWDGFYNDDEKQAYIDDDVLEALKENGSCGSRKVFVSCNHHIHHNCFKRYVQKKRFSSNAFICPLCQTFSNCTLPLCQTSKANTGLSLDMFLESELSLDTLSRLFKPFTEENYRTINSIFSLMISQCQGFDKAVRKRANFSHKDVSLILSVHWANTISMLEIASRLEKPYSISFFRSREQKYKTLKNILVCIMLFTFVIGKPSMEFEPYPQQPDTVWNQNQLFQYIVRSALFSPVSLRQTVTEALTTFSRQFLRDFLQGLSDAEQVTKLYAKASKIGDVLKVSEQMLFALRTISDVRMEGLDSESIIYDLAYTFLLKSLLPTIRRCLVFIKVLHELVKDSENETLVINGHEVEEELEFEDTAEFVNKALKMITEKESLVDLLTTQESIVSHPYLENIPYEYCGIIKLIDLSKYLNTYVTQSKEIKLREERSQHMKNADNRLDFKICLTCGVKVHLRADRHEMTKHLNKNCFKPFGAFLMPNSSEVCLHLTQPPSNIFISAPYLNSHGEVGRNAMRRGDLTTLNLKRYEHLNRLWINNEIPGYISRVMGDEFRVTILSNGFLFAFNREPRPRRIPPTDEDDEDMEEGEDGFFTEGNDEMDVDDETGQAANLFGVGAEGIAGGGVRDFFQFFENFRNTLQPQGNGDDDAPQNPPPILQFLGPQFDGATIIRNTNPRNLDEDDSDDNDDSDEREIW

| binding result [1] | Kd [2] [nM] | Binder |
| --- | --- | --- |
| binds | – | B1 |
| – | 143 ± 45 | KERKRRLAKKHQARLLAKFNNQQTKFMKEHESEFDE (peptide, UniProt P19812 1165-1200, looked up) [U2BR peptide (Ubr1 1165-1200)] |
